Laboratory results: US6465220

How the values were obtained:
[1] = test system: GalNAc4TAP24 glycopeptide
[2] = test system: Muc2 peptide
[3] = test system: Muc1a′ peptide
[4] = test system: PSGL-1b peptide
[5] = test system: EA2 peptide
[6] = test system: TAP24 peptide
[7] = test system: Muc1b′ peptide
[8] = test system: Muc7 peptide
[9] = test system: hCG-β peptide
[10] = test system: PSGL-1a peptide

PSGL-1b peptide, sequence (chain, as listed by the source): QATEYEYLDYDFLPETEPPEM
soluble recombinant human GalNAc-T2 (pAcGP67-GalNAc-T2-sol), sequence (chain, as listed by the source): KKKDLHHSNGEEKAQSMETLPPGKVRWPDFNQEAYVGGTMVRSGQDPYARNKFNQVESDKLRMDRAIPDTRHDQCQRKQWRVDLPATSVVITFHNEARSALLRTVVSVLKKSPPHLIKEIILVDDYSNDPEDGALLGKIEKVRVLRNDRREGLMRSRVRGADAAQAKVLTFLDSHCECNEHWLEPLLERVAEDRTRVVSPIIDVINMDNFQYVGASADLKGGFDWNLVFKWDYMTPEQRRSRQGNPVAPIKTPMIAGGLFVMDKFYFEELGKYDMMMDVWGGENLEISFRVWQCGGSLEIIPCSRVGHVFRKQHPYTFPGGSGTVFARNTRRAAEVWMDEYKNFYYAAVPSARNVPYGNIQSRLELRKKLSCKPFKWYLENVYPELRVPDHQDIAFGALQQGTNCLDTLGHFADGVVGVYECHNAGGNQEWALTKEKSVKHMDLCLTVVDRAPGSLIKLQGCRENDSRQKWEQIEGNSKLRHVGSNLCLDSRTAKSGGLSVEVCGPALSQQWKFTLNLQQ
soluble human GalNAc-T4 (pAcGP67-GalNAc-T4506Vsol), amino acid residues 32-578, sequence (chain, as listed by the source): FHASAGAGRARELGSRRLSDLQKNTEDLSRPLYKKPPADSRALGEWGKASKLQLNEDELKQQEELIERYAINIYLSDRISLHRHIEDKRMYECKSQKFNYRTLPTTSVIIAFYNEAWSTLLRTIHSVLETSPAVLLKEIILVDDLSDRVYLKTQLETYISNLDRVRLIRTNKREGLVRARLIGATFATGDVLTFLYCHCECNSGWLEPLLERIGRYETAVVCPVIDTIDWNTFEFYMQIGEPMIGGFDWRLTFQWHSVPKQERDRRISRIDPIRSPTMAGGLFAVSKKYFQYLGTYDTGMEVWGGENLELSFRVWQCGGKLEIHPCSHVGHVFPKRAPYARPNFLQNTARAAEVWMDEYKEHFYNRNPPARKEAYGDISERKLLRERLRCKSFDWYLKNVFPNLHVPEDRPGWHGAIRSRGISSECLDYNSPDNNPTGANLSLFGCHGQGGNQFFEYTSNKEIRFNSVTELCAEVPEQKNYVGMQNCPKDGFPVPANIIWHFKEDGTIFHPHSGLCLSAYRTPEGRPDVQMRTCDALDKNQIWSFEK
hCG-β peptide, sequence (chain, as listed by the source): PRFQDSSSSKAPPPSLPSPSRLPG
full coding human GalNAc-T4 (pVL-GalNAc-T4506Vfull) expressed in Sf9 cells, sequence (chain, as listed by the source): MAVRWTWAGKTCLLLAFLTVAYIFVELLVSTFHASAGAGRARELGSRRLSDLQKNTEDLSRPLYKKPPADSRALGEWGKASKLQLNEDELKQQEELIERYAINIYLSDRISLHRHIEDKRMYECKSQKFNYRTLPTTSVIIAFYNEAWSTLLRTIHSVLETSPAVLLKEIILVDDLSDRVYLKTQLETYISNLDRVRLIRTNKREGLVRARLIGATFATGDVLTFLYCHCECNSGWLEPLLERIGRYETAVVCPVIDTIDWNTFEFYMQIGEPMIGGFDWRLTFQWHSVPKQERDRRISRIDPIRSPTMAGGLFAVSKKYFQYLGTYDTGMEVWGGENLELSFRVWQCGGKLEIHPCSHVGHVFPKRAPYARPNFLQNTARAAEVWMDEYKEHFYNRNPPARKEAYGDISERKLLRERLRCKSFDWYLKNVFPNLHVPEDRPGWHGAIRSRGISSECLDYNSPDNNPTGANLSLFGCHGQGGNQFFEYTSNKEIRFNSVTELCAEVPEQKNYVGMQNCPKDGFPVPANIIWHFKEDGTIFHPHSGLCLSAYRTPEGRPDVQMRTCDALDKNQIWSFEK

Substance	GalNAc-transferase activity at 0.06 mM peptide (milliunits/mg) [1]	GalNAc-transferase activity at 0.25 mM peptide (milliunits/mg) [1]	GalNAc-transferase activity at 0.06 mM peptide (milliunits/mg) [2]	GalNAc-transferase activity at 0.25 mM peptide (milliunits/mg) [2]	GalNAc-transferase activity at 0.25 mM peptide (milliunits/mg) [3]	GalNAc-transferase activity at 1 mM peptide (milliunits/mg) [3]	GalNAc-transferase activity at 0.06 mM peptide (milliunits/mg) [4]	GalNAc-transferase activity at 0.25 mM peptide (milliunits/mg) [4]	Km for acceptor substrate [4] [µM]	GalNAc-transferase activity at 0.06 mM peptide (milliunits/mg) [5]	GalNAc-transferase activity at 0.25 mM peptide (milliunits/mg) [5]	Km for acceptor substrate [5] [µM]	Vmax [5] [nmol/min/µg]	GalNAc-transferase activity at 0.06 mM peptide (milliunits/mg) [6]	GalNAc-transferase activity at 0.25 mM peptide (milliunits/mg) [6]	GalNAc-transferase activity at 0.25 mM peptide (milliunits/mg) [7]	GalNAc-transferase activity at 1 mM peptide (milliunits/mg) [7]	GalNAc-transferase activity at 0.06 mM peptide (milliunits/mg) [8]	GalNAc-transferase activity at 0.25 mM peptide (milliunits/mg) [8]	Km for acceptor substrate [8] [µM]	other results
full coding human GalNAc-T4 (pVL-GalNAc-T4506Vfull) expressed in Sf9 cells																					GalNAc incorporation by MALDI-TOF of HPLC-purified product [1]: no incorporation was detected
soluble human GalNAc-T4 (pAcGP67-GalNAc-T4506Vsol), amino acid residues 32-578	4.4	7.1	9	29	2	6.7	1.2	1.4	20	15	42	2190	0.44	0.8	2.7	0.7	0.9	21	53	480	Km for acceptor substrate [1]: 90 µM; Vmax [1]: 0.007 nmol/min/µg; Vmax [4]: 0.003 nmol/min/µg; Vmax [8]: 0.25 nmol/min/µg
soluble recombinant human GalNAc-T2 (pAcGP67-GalNAc-T2-sol)	0	0	169	128	28	83	0.3	0.3	> 2000	152	376	850	1.8	73	222	198	582	737	396	15	GalNAc-transferase activity at 0.06 mM peptide (milliunits/mg) [9]: 22; GalNAc-transferase activity at 0.25 mM peptide (milliunits/mg) [9]: 74; GalNAc-transferase activity [4]: exhibited poor activities with both peptide designs; GalNAc-transferase activity [10]: exhibited poor activities with both peptide designs; GalNAc-transferase activity at 0.06 mM peptide (milliunits/mg) [10]: 0; GalNAc-transferase activity at 0.25 mM peptide (milliunits/mg) [10]: 0; Vmax [8]: 0.64 nmol/min/µg
